US20090068736A1 (TRUSTEES OF DARTMOUTH COLLEGE, published 2009)

Biological target: Mammalian (Human) 20S Proteasome (Mammalian (Human))
Assay: cell-based or functional assay

| I50 (µM), inhibition of chymotrypsin-like (ChT-L) peptidase activity of 20S proteasome, N-succinyl-LLVY-AMC substrate [µM] | Binder |
| --- | --- |
| 0.034 | RRRPRPPFLPRW [F8W12] |
| 4.99 | RRRARPPYLPR [A4] |
| 0.685 | RRRPRPPYLPA [A11] |
| 0.851 | RRRPRPAYLPR [A7] |
| 0.782 | RRRPRPPYLAR [A10] |
| 2.77 | RARPRPPYLPR [A2] |
| 6.34 | KRRPRPPELPR [K1E8] |
| 0.543 | RKRPRPPYLPR [K2] |
| > 100 | AAAPRPPYLPR [AAA-PR11] |
| 1.22 | RRRPRAPYLPR [A6] |
| 2.65 | RRRPAPPYLPR [A5] |
| 11.3 | ARAPRPPYLPR [ARA] |
| 0.715 | RRRPRPPALPRW [A8W12] |
| 2.37 | RRRPRPPELPR [E8] |
| 2.81 | ARRPRPPYLPR [A1] |
| 0.004 | RRRPRPPYLPRPRPPPFFPPRLPPRIPPGFPPRFPPRFP [PR39] |
| 49.4 | ARRPRPPELPR [A1E8] |
| 0.595 | KRRRPPYLPR [K1] |
| 0.819 | RRKPRPPYLPR [K3] |
| 0.137 | RRRPRPPYGPR [G9] |
| 0.805 | RRRPRPPYLPR [PR11] |
| 3.15 | RRAPRPPYLPR [A3] |
| 20.1 | RAAPRPPYLPR [RAA] |
| 0.006 | RRRPRPPYLPRW [W12] |
| 14.5 | AARPRPPYLPR [AAR] |
| 2.71 | KKKPRPPYLPR [KKK] |
| 2.62 | RRRPRPPELPRW [E8W12] |
